T1: IGSF8 extracellular domain (ED) (Homo sapiens (Human), UniProt Q969P0 28-579)
T1 construct: also called IGSF8 ECD
T1 sequence: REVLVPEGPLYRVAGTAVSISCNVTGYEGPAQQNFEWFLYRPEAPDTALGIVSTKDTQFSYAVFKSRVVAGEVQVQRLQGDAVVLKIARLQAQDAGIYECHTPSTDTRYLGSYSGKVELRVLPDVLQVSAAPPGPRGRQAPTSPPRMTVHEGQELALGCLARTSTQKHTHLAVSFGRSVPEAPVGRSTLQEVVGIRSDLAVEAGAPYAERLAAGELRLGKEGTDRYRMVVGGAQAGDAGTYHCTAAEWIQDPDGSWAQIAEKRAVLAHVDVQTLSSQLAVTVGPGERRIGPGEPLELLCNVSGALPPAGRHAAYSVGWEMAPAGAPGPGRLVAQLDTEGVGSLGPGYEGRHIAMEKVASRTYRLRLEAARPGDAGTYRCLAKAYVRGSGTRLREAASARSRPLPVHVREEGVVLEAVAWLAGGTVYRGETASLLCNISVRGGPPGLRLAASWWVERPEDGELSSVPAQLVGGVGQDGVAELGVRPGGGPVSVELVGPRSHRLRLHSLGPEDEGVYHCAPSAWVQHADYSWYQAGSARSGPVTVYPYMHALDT

T2: recombinant human IGSF8 extracellular domain tagged by a human Fc region (IGSF8-hFc) (human, UniProt Q969P0 28-579, biotin label in Examples 17, 18 and 28 (site not given))
T2 construct: also called IGSF8-Fc fusion protein; IGSF8-hFc-biotin; not shown: human Fc region
T2 sequence: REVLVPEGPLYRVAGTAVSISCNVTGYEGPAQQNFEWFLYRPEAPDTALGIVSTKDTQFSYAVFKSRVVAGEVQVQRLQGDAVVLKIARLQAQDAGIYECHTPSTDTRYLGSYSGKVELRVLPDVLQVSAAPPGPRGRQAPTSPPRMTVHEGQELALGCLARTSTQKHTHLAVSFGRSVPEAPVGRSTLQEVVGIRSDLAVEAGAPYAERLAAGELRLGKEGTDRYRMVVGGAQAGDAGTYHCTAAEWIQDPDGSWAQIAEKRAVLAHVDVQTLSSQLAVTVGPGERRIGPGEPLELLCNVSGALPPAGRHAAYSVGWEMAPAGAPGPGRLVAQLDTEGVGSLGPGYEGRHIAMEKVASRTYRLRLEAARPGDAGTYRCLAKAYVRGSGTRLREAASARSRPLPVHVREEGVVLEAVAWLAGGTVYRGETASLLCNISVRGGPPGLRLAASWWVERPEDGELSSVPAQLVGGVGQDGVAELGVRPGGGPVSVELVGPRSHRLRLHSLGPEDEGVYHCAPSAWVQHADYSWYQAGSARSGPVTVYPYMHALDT


How the values were obtained:
[1] = target: T1, IGSF8 extracellular domain (ED); assay: ELISA on IGSF8 extracellular domain
[2] = target: T2, recombinant human IGSF8 extracellular …; assay: SPR, Ab captured
Description: The binding affinities of the L1 and L2 antibodies to IGSF8 recombinant protein were determined by surface plasmon resonance (SPR). Briefly, anti-human Fab antibody was imobilized on acarboxyl-derivatized SPR chip surface, and the antibodies were captured on the resulting surface at 5 μg/ml for 30 seconds.

Binder	binding result [1]	Kd [2]	koff [2]	kon [2]
L1-19 (antibody, V domains shown) VH: QVQLVESGGGVVQPGRSLRLSCAASGFTFSTYGMHWVRQAPGKGLEWVAVIWDDGSYKYYGDSVKGRFTISRDNSKNTLYLQMNSLRAEDTAVYYCARDGSGWGYAFDIWGQGTLVTVSS VL: DIQMTQSPSSLSASVGDRVTITCQASQDISPYLNWYQQKPGKAPKLLIYDAPNLETGVPSRFSGSGSGTDFTFTISSLQPEDIATYYCQQYDSFPYTFGQGTKVEIK	–	4580 pM	0.000705 s⁻¹	154000 M⁻¹ s⁻¹
L1-24 (antibody, V domains shown) VH: QVQLVESGGGVVQPGRSLRLSCAASGFTFSTYGMHWVRQAPGKGLEWVAVIWDDGSYKYYGDSVKGRFTISRDNSKNTLYLQMNSLRAEDTAVYYCARDGSGWGYAFDIWGQGTLVTVSS VL: DIQLTQSPSSLSASVGDRVTITCQASQDIGPYLNWYQHKPGKAPKPLVFGSPNLETGVPSRFSASGSGTDFTLTISSLQPEDFATYYCQQYDSFPYTFGQGTKVEIK	–	6.8 pM	3.06e-06 s⁻¹	450000 M⁻¹ s⁻¹
L1-23 (antibody, V domains shown) VH: QVQLVESGGGVVQPGRSLRLSCAASGFTFSTYGMHWVRQAPGKGLEWVAVIWDDGSYKYYGDSVKGRFTISRDNSKNTLYLQMNSLRAEDTAVYYCARDGSGWGYAFDIWGQGTLVTVSS VL: DIQLTQSPSSLSASVGDRVTITCQASQDIGPWLNWYQHKPGKAPKPLVFGSPNLETGVPSRFSASGSGTDFTLTISSLQPEDFATYYCQQYDSFPYTFGQGTKVEIK	–	2.35 pM	1.19e-06 s⁻¹	506000 M⁻¹ s⁻¹
L1-21 (antibody, V domains shown) VH: QVQLVESGGGVVQPGRSLRLSCAASGFTFSTYGMHWVRQAPGKGLEWVAVIWDDGSYKYYGDSVKGRFTISRDNSKNTLYLQMNSLRAEDTAVYYCARDGSGWGYAFDIWGQGTLVTVSS VL: DIQLTQSPSSLSASVGDRVTITCQASQDIGPWLNWYQHKPGKAPKPLIYGSPNLETGVPSRFSGSGSGTDFTFTISSLQPEDIATYYCQQYDSFPYTFGQGTKVEIK	–	6710 pM	0.00272 s⁻¹	406000 M⁻¹ s⁻¹
L1-25 (antibody, V domains shown) VH: QVQLVESGGGVVQPGRSLRLSCAASGFTFSTYGMHWVRQAPGKGLEWVAVIWDDGSYKYYGDSVKGRFTISRDNSKNTLYLQMNSLRAEDTAVYYCARDGSGWGYAFDIWGQGTLVTVSS VL: DIQLTQSPSSLSASVGDRVTITCQASQDISPWLNWYQHKPGKAPKPLVFGSPNLETGVPSRFSASGSGTDFTLTISSLQPEDFATYYCQQYDSFPYTFGQGTKVEIK	–	4460 pM	0.0022 s⁻¹	492000 M⁻¹ s⁻¹
L1-26 (antibody, V domains shown) VH: QVQLVESGGGVVQPGRSLRLSCAASGFTFSTYGMHWVRQAPGKGLEWVAVIWDDGSYKYYGDSVKGRFTISRDNSKNTLYLQMNSLRAEDTAVYYCARDGSGWGYAFDIWGQGTLVTVSS VL: DIQLTQSPSSLSASVGDRVTITCQASQDISPYLNWYQHKPGKAPKPLVFGSPNLETGVPSRFSASGSGTDFTLTISSLQPEDFATYYCQQYDSFPYTFGQGTKVEIK	–	987 pM	0.000497 s⁻¹	503000 M⁻¹ s⁻¹
L1-27 (antibody, V domains shown) VH: QVQLVESGGGVVQPGRSLRLSCAASGFTFSTYGMHWVRQAPGKGLEWVAVIWDDGSYKYYGDSVKGRFTISRDNSKNTLYLQMNSLRAEDTAVYYCARDGSGWGYAFDIWGQGTLVTVSS VL: DIQLTQSPSSLSASVGDRVTITCQASQDISYNLNWYQHKPGKAPKPLVFGSPNLETGVPSRFSASGSGTDFTLTISSLQPEDFATYYCQQYDSFPYTFGQGTKVEIK	–	1880 pM	0.000835 s⁻¹	444000 M⁻¹ s⁻¹
L1-22 (antibody, V domains shown) VH: QVQLVESGGGVVQPGRSLRLSCAASGFTFSTYGMHWVRQAPGKGLEWVAVIWDDGSYKYYGDSVKGRFTISRDNSKNTLYLQMNSLRAEDTAVYYCARDGSGWGYAFDIWGQGTLVTVSS VL: DIQLTQSPSSLSASVGDRVTITCQASQDISPWLNWYQHKPGKAPKPLIYGSPNLETGVPSRFSGSGSGTDFTFTISSLQPEDIATYYCQQYDSFPYTFGQGTKVEIK	–	2940 pM	0.000363 s⁻¹	123000 M⁻¹ s⁻¹

Continued, values first:

binding result [1]	Kd [2]	koff [2]	kon [2]	Binder
binds	–	–	–	Antibody C10 (antibody, V domains shown, also called anti-IGSF8 C10) VH: EVQLLESGGGLVQPGGSLRLSCAASGFTFSRYRMYWVRQAPGKGLEWVSTISRSGGRTVYADSVKGRFTISRDNSKNTLYLQMNSLRAEDTAVYYCARDATGRHYNGMDVWGQGTLVTV VL: ETTLTQSPATLSVSPGERATLSCRASQSVSSNVAWYQQKPGQAPRLLMFGSGTRATGIPARFSGSGSGTEFTLTISSLQSEDFAAYYCQQYNDWPSFGQGTRVEIKG
–	11.2 pM	4.25e-06 s⁻¹	381000 M⁻¹ s⁻¹	L1-29 (antibody, V domains shown) VH: QVQLVESGGGVVQPGRSLRLSCAASGFTFSTYGMHWVRQAPGKGLEWVAVIWDDGSYKYYGDSVKGRFTISRDNSKNTLYLQMNSLRAEDTAVYYCARDGSGWGYAFDIWGQGTLVTVSS VL: DIQLTQSPSSLSASVGDRVTITCQASQDIGPWLNWYQHKPGKAPKPLVFDAPNLETGVPSRFSASGSGTDFTLTISSLQPEDFATYYCQQYDSFPYTFGQGTKVEIK
–	3.71 pM	7.8e-07 s⁻¹	210000 M⁻¹ s⁻¹	L1-31 (antibody, V domains shown) VH: QVQLVESGGGVVQPGRSLRLSCAASGFTFSTYGMHWVRQAPGKGLEWVAVIWDGGKYKYYGDSVKGRFTISRDNSKNTLYLQMNSLRAEDTAVYYCARDGSGWGYAFDIWGQGTLVTVSS VL: DIQLTQSPSSLSASVGDRVTITCQASQDIGPWLNWYQHKPGKAPKPLVFRSPNLETGVPSRFSASGSGTDFTLTISSLQPEDFATYYCQQYDSFPYTFGQGTKVEIK
–	29 pM	8.01e-06 s⁻¹	276000 M⁻¹ s⁻¹	L1-33 (antibody, V domains shown) VH: QVQLVESGGGVVQPGRSLRLSCAASGFTFSTYGMHWVRQAPGKGLEWVAVIWDGGKYKYYGDSVKGRFTISRDNSKNTLYLQMNSLRAEDTAVYYCARDGSGWGYAFDIWGQGTLVTVSS VL: DIQLTQSPSSLSASVGDRVTITCQASQDIGPWLNWYQHKPGKAPKPLVFGSPNLETGVPSRFSASGSGTDFTLTISSLQPEDFATYYCQQYDSFPYTFGQGTKVEIK
–	21 pM	6.56e-06 s⁻¹	312000 M⁻¹ s⁻¹	L1-32 (antibody, V domains shown) VH: QVQLVESGGGVVQPGRSLRLSCAASGFTFSTYGMHWVRQAPGKGLEWVAVIWDGGSYKYYGDSVKGRFTISRDNSKNTLYLQMNSLRAEDTAVYYCARDGSGWGYAFDIWGQGTLVTVSS VL: DIQLTQSPSSLSASVGDRVTITCQASQDIGPWLNWYQHKPGKAPKPLVFGSPNLETGVPSRFSASGSGTDFTLTISSLQPEDFATYYCQQYDSFPYTFGQGTKVEIK
–	6.42 pM	3.03e-06 s⁻¹	472000 M⁻¹ s⁻¹	L1-30 (antibody, V domains shown) VH: QVQLVESGGGVVQPGRSLRLSCAASGFTFSTYGMHWVRQAPGKGLEWVAVIWDDGSYKYYGDSVKGRFTISRDNSKNTLYLQMNSLRAEDTAVYYCARDGSGWGYAFDIWGQGTLVTVSS VL: DIQLTQSPSSLSASVGDRVTITCQASQDIGPWLNWYQHKPGKAPKPLVFGADNLETGVPSRFSASGSGTDFTLTISSLQPEDFATYYCQQYDSFPYTFGQGTKVEIK
–	1.17 pM	4.28e-07 s⁻¹	367000 M⁻¹ s⁻¹	L1-28 (antibody, V domains shown) VH: QVQLVESGGGVVQPGRSLRLSCAASGFTFSTYGMHWVRQAPGKGLEWVAVIWDDGSYKYYGDSVKGRFTISRDNSKNTLYLQMNSLRAEDTAVYYCARDGSGWGYAFDIWGQGTLVTVSS VL: DIQLTQSPSSLSASVGDRVTITCQASQDIEWWLNWYQHKPGKAPKPLIYGSPNLETGVPSRFSGSGSGTDFTFTISSLQPEDIATYYCQQYDSFPYTFGQGTKVEIK
binds	–	–	–	Antibody C1 (antibody, V domains shown, also called anti-IGSF8 C1) VH: QVQLLQSGGGLVQPGGSLRLSCAASGFTFSRYRMSWVRQAPGKGLEWVSRISRSGGATAYADSVKGRFTISRDNSKNTLYLQMNSLRAEDTAVYYCARDATGRHYNGMDVWGRGTLVTVSS VL: EIALTQSPSSLSASVGDRVTITCRASQTITRHLNWFQQKPGKAPNLLIHGTSALQTGVPPRFSGGGSGTDFTLTINSLQPEDFGTYYCQQSHTKPWTFGPGTKVEIKR
binds	–	–	–	Antibody C12 (antibody, V domains shown, also called anti-IGSF8 C12) VH: EVQLVESGGGLVQPGGSLRLSCAASGFTFSKYKMSWVRQAPGKGLEWVSTIAPSGGGTRYADSVKGRFTISRDNSKNTLYLQMNSLRAEDTAVYYCARGGHFSNPWGQGTLVTVSS VL: DVVMTQSPLSLPVTLGQPASISCRSSQSLVHTDGDTYLNWYQQRPGQSPRRLIYKVSKRDSGVPDRFSGSGSGTDFTLKISRVEAEDVGVYYCMQGIKRPYTLGQGTKLEIKR
binds	–	–	–	Antibody C11 (antibody, V domains shown, also called anti-IGSF8 C11) VH: EVQLVESGGGLVQPGGSLRLSCAASGFTFSRYRMYWVRQAPGKGLEWVSSISSSGGRTKYADSVKGRFTISRDNSKNTLYLQMNSLRAEDTAVYYCARGVRYCSSPSCSRGPRYAMDVWGKGTTVTVSS VL: DIQMTQSPSSLSASVGDRVTITCRASYVIRNDLSWYQQKPGKAPKLLIYGTSSLHNGVPSRFSGSGYGTYFTLTISSLQPEDFGTYYCLQDDKYPLTFGGGTKVEIKR

— patent US20230303695A1 (SHANGHAI XBH BIOTECHNOLOGY, published 2023)
